{"source": "paper PMC3365590", "about": "(Journal of Molecular Biology, 2010)", "target": "the molecule itself", "assay": "SEC"}
{"protein": "ROK fructokinase YdhR from Bacillus subtilis, native protein (size exclusion chromatography) (enzyme, B. subtilis, UniProt O05510 1-299, looked up) MLGGIEAGGTKFVCAVGREDGTIIDRIEFPTKMPDETIEKVIQYFSQFSLQAIGIGSFGPVDNDKTSQTYGTITATPKAGWRHYPFLQTVKNEMKIPVGFSTDVNAAALGEFLFGEAKGLDSCLYITIGTGIGAGAIVEGRLLQGLSHPEMGHIYIRRHPDDVYQGKCPYHGDCFEGLASGPAIEARWGKKAADLSDIAQVWELEGYYIAQALAQYILILAPKKIILGGGVMQQKQVFSYIYQYVPKIMNSYLDFSELSDDISDYIVPPRLGSNAGIIGTLVLAHQALQAEAASGEVRS", "values": [{"measurement": "stoichiometry N", "value": 2}]}
